# Assay results published in patent publication US6541254B1, “Glycosylation variants of iduronate 2-sulfatase” (Women's and Children's Hospital, priority 1991, dated 2003).
# B1: Liver IDS: Naturally glycosylated mature iduronate 2-sulfatase purified from human liver (protein, UniProt P22304 34-455; P22304 456-550, looked up)
# Iduronate 2-sulfatase 42 kDa …: TDALNVLLIIVDDLRPSLGCYGDKLVRSPNIDQLASHSLLFQNAFAQQAVCAPSRVSFLTGRRPDTTRLYDFNSYWRVHAGNFSTIPQYFKENGYVTMSVGKVFHPGISSNHTDDSPYSWSFPPYHPSSEKYENTKTCRGPDGELHANLLCPVDVLDVPEGTLPDKQSTEQAIQLLEKMKTSASPFFLAVGYHKPHIPFRYPKEFQKLYPLENITLAPDPEVPDGLPPVAYNPWMDIRQREDVQALNISVPYGPIPVDFQRKIRQSYFASVSYLDTQVGRLLSALDDLQLANSTIIAFTSDHGWALGEHGEWAKYSNFDVATHVPLIFYVPGRTASLPEAGEKLFPYLDPFDSASQLMEPGRQSMDLVELVSLFPTLAGLAGLQVPPRCPVPSFHVELCREGKNLLKHFRFRDLEEDPYLPG
# Iduronate 2-sulfatase 14 kDa …: NPRELIAYSQYPRPSDIPQWNSDKPSLKDIKIMGYSIRTIDYRYTVWVGFNPDEFLANFSDIHAGELYFVDSDPLQDHNMYNDSQGGDLFQLLMP
# modifications: natural glycosylation, liver-purified
# notes: Naturally glycosylated mature iduronate 2-sulfatase purified from human liver
# B2: rIDS: Recombinant human iduronate 2-sulfatase, highly glycosylated, secreted by CHO-K1 clonal line CHOEFI2S-9 (protein)
# chain: SETQANSTTDALNVLLIIVDDLRPSLGCYGDKLVRSPNIDQLASHSLLFQNAFAQQAVCAPSRVSFLTGRRPDTTRLYDFNSYWRVHAGNFSTIPQYFKENGYVTMSVGKVFHPGISSNHTDDSPYSWSFPPYHPSSEKYENTKTCRGPDGELHANLLCPVDVLDVPEGTLPDKQSTEQAIQLLEKMKTSASPFFLAVGYHKPHIPFRYPKEFQKLYPLENITLAPDPEVPDGLPPVAYNPWMDIRQREDVQALNISVPYGPIPVDFQRKIRQSYFASVSYLDTQVGRLLSALDDLQLANSTIIAFTSDHGWALGEHGEWAKYSNFDVATHVPLIFYVPGRTASLPEAGEKLFPYLDPFDSASQLMEPGRQSMDLVELVSLFPTLAGLAGLQVPPRCPVPSFHVELCREGKNLLKHFRFRDLEEDPYLPGNPRELIAYSQYPRPSDIPQWNSDKPSLKDIKIMGYSIRTIDYRYTVWVGFNPDEFLANFSDIHAGELYFVDSDPLQDHNMYNDSQGGDLFQLLMP
# Key:
# [1] = Catalytic properties of IDS with radiolabelled disaccharide substrate; type: biochemical; conditions: for Specific Activity / pH Optimum: IdoA2S-anM6S substrate; for Km / Vmax: IdoA2S-anM6S, 50 mM sodium acetate pH 4.5, 500 μg/ml BSA
# Method: (§1) Media samples, or cell lysates prepared by six cycles of freeze/thaw in 0.5 M-NaCl/20 mM-Tris/HCl, pH 7.0, were clarified by microcentrifugation (12,000×g, 4° C., 5 min) and were either assayed directly or after dilution in assay buffer. […] IDS was assayed using the radiolabelled disaccharide substrate IdoA2S-anM6S (3). Protein estimations were according to the method of Lowry et al (29).
# (§2) The rIDS was purified from the collected medium by a 3-step column procedure. The medium was dialysed overnight at 4° C. against 30 mM-Tris/HCl, pH 7.0/10% v/v glycerol/0.1 mM-DTE/3 mM-NaN3 (buffer A) and was applied to a PBE94 column (8 cm×1.5 cm) equilibrated in buffer A (flow-rate 1.0 ml/min) and then washed with 100 ml of buffer A. Bound proteins were […] with polybuffer 74 that had been diltured 1:18 with water, the pH adjusted to 4.0 with HCl and the solution made 10% v/v in glycerol, 0.1 mM-DTE and 3 mM-NaN3. The column was further eluted with 100 ml 15 mM-ditheriothreitol/3 mM-NaN3 (buffer B). The rIDS eluted in buffer B was applied at a flow-rate of 1.0 ml/min to a Blue A agarose column (6 cm×0.7 cm) also equilibrated in buffer B. The rIDS activity from this step was applied in 1.0 ml volumes to an LKB Ultrachrom GTi f.p.l.c. system with a TSK G3000SW Ultrapac column (30 cm×0.8 cm) equilibrated and eluted in buffer B at a flow-rate of 0.5 ml/min and pressure of 150 kPa. Fractions containing rIDS activity were pooled and analysed under denaturing and non-denaturing condition on SDS-PAGE (10% w/v acrylamide) to estimate apparent subunit size. Gels were stained with either Gradipure Colloidal Electrophoresis Gel Stain (Gradipure, Pyrmont, NSW) or silver stained accordinng to the method of Merril et al (32). Native molecular mass was determined using the f.p.l.c. system as described elsewhere (3) Kinetic (Km, V max, pH optima) and inhibition data were obtained as previously described (3).
# Although both the liver and rIDS show a similar Km towards the disaccharide substrate (IdoA2S-anM6S) in the standard assay (50 mM sodium acetate pH 4.5 and 500 μg/ml BSA) they have a substantially different V max. […] Alternatively, this may reflect a difference between enzyme produced in CHO cells and in liver. Both the (CHO) recombinant and (liver) mature form of the enzyme have similar pH optima and specific activities (Table 2).
# MPS II cells (SF-1779) = test: Endocytosis of rIDS with or without mannose-6-phosphate; type: cell-based, human; conditions: rIDS at 5×10^4 and 5×10^3 pmol/min per ml, 5 mM mannose-6-phosphate
# Method: Cells from SF-1779 were plated in 20 wells (3.83 cm^2) and allowed to reach confluency. Wells 1 to 4 were untreated controls. To each of wells 5 to 12 and 13 to 20 was added 1.0 ml of medium containing rIDS at 5×10^4 pmol/min per ml and 5×10^3 pmol/min per ml respectively. In addition the medium in wells 9 to 12 and 17 to 20 was made 5 mM mannose-6-phosphate. The cells were then incubated for 6 hours after which time they were rinsed with medium and fresh medium added. The cells were incubated overnight and then harvested, washed and lysed as described above. The cell lysates were dialysed against 5 mM-sodium acetate, pH 4.0, for 16 h at 4° C. and then analysed for IDS activity and total protein.
# [2] = Chromatofocusing on PBE94; type: physicochemical; conditions: majority of rIDS (pool B)
# Method: as §2, with “Gels were stained with either Gradipure Colloidal Electrophoresis Gel Stain (Gradipure, Pyrmont, NSW) or silver stained accordinng to the method of Merril et al (32).” left out
# [3] = system: MPS II fibroblasts (SF-635 and SF-1779); test: Correction of MPS II fibroblasts by rIDS; type: cell-based, human; conditions: for 35S-cpm/mg Cell Protein / β-Hexosaminidase activity in cell lysate / IDS activity in cell lysate: 5 × 10^4 pmol/min per ml rIDS, 72 hours; for IDS activity in cell lysate: undialysed lysate
# Method: Human diploid fibroblasts were established from skin biopsies submitted to this hosptial for diagnosis (28). Cell lines were maintained according to established procedures in BME, 10% v/v FCS and antibiotics unless otherwise stated. The two MPS II skin fibroblast cell lines used in this study (SF-635 and SF-1779) both have low residual IDS activity.
# as §1
# The fluorogenic substrate 4-methylumbelliferyl-2-acetamido-2-deoxy-β-D-glucopyranoside was used to measure β-hexosaminidase activity (31).
# For these experiments IDS was obtained from CHOEFI2S-9 cells cultured in CHO-SFM medium suppplemented with 10 mM-NH4C1 and antibiotics. […] Fibroblasts from a normal individual (SF-3409) and from two MPS II patients (SF-635 and SF-1779) were grown to confluency in 25 cm^2 flasks and radiolabelled with Na2^35SO4 as previously described (27). The labelled cells were then exposed to 5×10^4 pmol/min per ml of rIDS for 72 hours. After harvesting the cells by trypsin treatment and washing by centrifugation/resuspension in PBS, the cell pellet was resuspended in 100 μl of 20 mM-Tris/HCl, pH 7.0/0.5 M-NaCl, and the cell lysates prepared as described above. The cell extracts were analysed for IDS activity, total protein, β-hexosaminidase activity and radioactivity.
# [4] = system: MPS II skin fibroblasts (SF-635); test: Subcellular fractionation of rIDS-treated cells on Percoll density gradients; type: cell-based, human; conditions: corrected MPS II cells; Percoll gradient of post-nuclear supernatant
# Method: Cells from SF-635 were grown to confluency in 75 cm^2 flasks and then exposed to medium supplemented with 5×10^4 pmol/min per ml rIDS. The cells were incubated for 72 h then harvested and fractionated on Percoll density gradients as described in Anson el al (27). The resulting gradient was collected in 1.0 ml fractions by bottom puncture and the fractions analysed for IDS and β-hexosaminidase activity.
Effect on activity of second lysosomal enzyme β-hexosaminidase ([3]; endocytosis of IDS in MPS II fibroblasts),Molecule,Specific Activity [1],pH Optimum [1],Km [1],Vmax [1],Uptake of IDS activity in presence or absence of mannose-6-phosphate (MPS II cells (SF-1779)),pI [2],"Clearance of stored 35S-labelled material ([3]; MPS II fibroblasts, rIDS at 5×10^4 pmol/min per ml)","IDS activity level above normal ([3]; SF635, rIDS at 5×10^4 pmol/min per ml)","IDS activity level above normal ([3]; SF1779, rIDS at 5×10^4 pmol/min per ml)",35S-cpm/mg Cell Protein ([3]; SF-635 cells labelled with Na2 35SO4),β-Hexosaminidase activity in cell lysate ([3]; SF-635 cells),IDS activity in cell lysate ([3]; SF-635 cells),35S-cpm/mg Cell Protein ([3]; SF-1779 cells labelled with Na2 35SO4),β-Hexosaminidase activity in cell lysate ([3]; SF-1779 cells),IDS activity in cell lysate ([3]; SF-1779 cells),Subcellular localisation of endocytosed enzyme [4]
–,B1,11.9 μmol/min per mg,4.5,4 µM,80 μmol/min per mg,–,–,–,–,–,–,–,–,–,–,–,–
not affected,B2,20.8 μmol/min per mg,4.5,3 µM,3.35 μmol/min per mg,uptake is mediated via the mannose-6-phosphate receptor,< 4.0,clearance of this stored product to levels comparable to those seen in control fibroblasts,80 fold,40 fold,9018 ± 1988 cpm/mg,257 ± 14 nmol/min per mg,1140 ± 50 pmol/min per mg,5136 ± 502 cpm/mg,118 ± 11 nmol/min per mg,562 ± 99 pmol/min per mg,fractionated with the lysosomal enzyme β-hexosaminidase in the dense fraction of the gradient
